Assays:
[1] = target: T1, HER2 (human, UniProt P04626); test: BLI, 30C, E. coli-expressed
[2] = target: T1, HER2; test: BLI, 30C, ExpiCHO-expressed

- Kd [1]: 1.5 nM
- Kd [2]: 0.28 nM
B1: LH_S-C (antibody)
chain 1: EVQLVESGGGLVQPGGSLRLSVAASGFNIKDTYIHWVRQAPGKGLEWVARIYPTNGYTRYADSVKGRFTISADTSKNTAYLQMNSLRAEDTAVYYASRWGGDGFYCMDYWGQGTLVTVSS
chain 2: not shown

— US20260327336 (published 2026)
